The values that follow come from US20250381223A1 (UTC THERAPEUTICS SHANGHAI, published 2025).

Assay [1] deals with T1, CD40-Fc (human, UniProt P25942).
T1 construct: part fused to Fc; staining reagent of the flow cytometry; also called recombinant human CD40-Fc antigen protein
Put plainly: flow cytometry of T cells co-electroporated with 15 µg diabody mRNA and 2 µg M12 CAR mRNA; CD40-Fc + PE-anti-Fc; E1 without mRNA: 0.56.

Assay [2] concerns the target T1, CD40-Fc. Put plainly: flow cytometry of T cells co-electroporated with 15 µg diabody mRNA and 0.5 µg 4D5.BBZ mRNA; CD40-Fc + PE-anti-IgG-Fc; E1 without mRNA: 0.27. For orientation: In flow cytometry, cells or beads pass a laser one at a time.
Assay [3] has as its target T2, mesothelin-Fc recombinant protein (human, UniProt Q13421 296-580, limits assumed).
T2 construct: construct not described; also called Meso-Fc; not shown: Fc part
Put plainly: flow cytometry, T cells with CAR mRNA, mesothelin-Fc + PE-anti-IgG-Fc; Control 0.97. As for the experimental part: Mesothelin CAR mRNA obtained in Example 26 above was introduced into A549 tumor cells and T cells by electroporation, and the procedures are as follows: A549 tumor cells and T cells were collected and washed 3 times with the Opti-MEM medium. The cell pellet was resuspended in the Opti-MEM medium and the cell concentration was adjusted to 1×10e7 cells/mL. 10 μg of RNA was aliquoted into 1.5-mL EP tubes, 100 μL of T cells or A549 cells were added, followed by mixing well. 100 μL of cells mixed with RNA were added to the BTX electroporation cuvette and slight tapping was performed to avoid air bubbles. Electroporation was performed using a BTX instrument under the following parameters: for T cells: 500 V voltage, 0.7 ms; for A549 tumor cells: 300 V voltage, 0.5 ms. The cells were then transferred to a pre-warmed medium and cultured at 37° C. The binding of mesothelin CART cells to the mesothelin-Fc recombinant protein was determined by FACS staining. […] T cells without CAR molecules served as the control (“Mock”).

T2 sequence (Q13421 other isoform, or with tags, fused parts or gaps limits assumed): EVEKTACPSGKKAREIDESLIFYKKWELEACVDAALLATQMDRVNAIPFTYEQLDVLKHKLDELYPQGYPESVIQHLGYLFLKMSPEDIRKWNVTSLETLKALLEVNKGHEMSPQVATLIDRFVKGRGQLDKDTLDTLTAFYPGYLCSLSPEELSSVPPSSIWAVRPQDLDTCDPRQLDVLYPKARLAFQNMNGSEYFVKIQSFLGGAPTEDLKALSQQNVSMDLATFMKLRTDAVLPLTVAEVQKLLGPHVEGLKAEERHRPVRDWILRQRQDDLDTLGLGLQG

B1: 4.8 (bispecific antibody)
scFv-G4S-scFv: QSALTQPPSASGSPGQSVTISCTGTSSDVGAYNFVSWYQQHPGNAPKLIIYDVRKRPSGIPDRFSASKSGNTASLTVSGLQADDEADYYCSSYAGNNNLVFGGGTKLTVLGGGGSGGGGSGGGGSQVQLVQSGAEVKKPGSSVKVSCKASGGTFSSYAISWVRQAPGQGLEWMGMINPSGGTTSYAQKFQGRVTMTRDTSTSTVYMELSSLRPEDTAVYYCARGFRMDQWGQGTLVTVSSGGGGSDIQLTQSPSSLSVSVGDRVTISCRASESVEYYVTSLMQWYQQKPGQAPKLLIFAASNVESGVPSRFSGSGSGTNFTLTISSVQEEDFAMYFCQQSRKVPYTFGGGTKLEIKGGGGSGGGGSGGGGSQVKLQESGPGLVKPSETLSITCTVSGFSLSDYGVHWVRQSPGKGLEWLGVIWAGGGTNYNSALMSRKTISKDNSKSQVFLKMSSLTAADTAVYYCARDKGYSYYYSMDYWGQGTTVTVSS
notes: expressed from mRNA in T cells
Regarding B1, the “% of cells in the positive gate” value in assay [1] was determined as 88.5; in assay [2], 90.2.

B2: 4.6 (bispecific antibody)
scFv-G4S-scFv: QVQLVQSGAEVKKPGSSVKVSCKASGGTFSSYAISWVRQAPGQGLEWMGMINPSGGTTSYAQKFQGRVTMTRDTSTSTVYMELSSLRPEDTAVYYCARGFRMDQWGQGTLVTVSSGGGGSGGGGSGGGGSQSALTQPPSASGSPGQSVTISCTGTSSDVGAYNFVSWYQQHPGNAPKLIIYDVRKRPSGIPDRFSASKSGNTASLTVSGLQADDEADYYCSSYAGNNNLVFGGGTKLTVLGGGGSQVKLQESGPGLVKPSETLSITCTVSGFSLSDYGVHWVRQSPGKGLEWLGVIWAGGGTNYNSALMSRKTISKDNSKSQVFLKMSSLTAADTAVYYCARDKGYSYYYSMDYWGQGTTVTVSSGGGGSGGGGSGGGGSDIQLTQSPSSLSVSVGDRVTISCRASESVEYYVTSLMQWYQQKPGQAPKLLIFAASNVESGVPSRFSGSGSGTNFTLTISSVQEEDFAMYFCQQSRKVPYTFGGGTKLEIK
notes: as for B1
Turning to B2, the “% of cells in the positive gate” value in assay [1] is 97.9; in assay [2] it was 98.5.

B3: 8.6 (bispecific antibody)
scFv-G4S-scFv: QVQLVQSGAEVKKPGSSVKVSCKASGGTFSSYAISWVRQAPGQGLEWMGMINPSGGTTSYAQKFQGRVTMTRDTSTSTVYMELSSLRPEDTAVYYCARGFRMDQWGQGTLVTVSSGGGGSGGGGSGGGGSQSALTQPPSASGSPGQSVTISCTGTSSDVGAYNFVSWYQQHPGNAPKLIIYDVRKRPSGIPDRFSASKSGNTASLTVSGLQADDEADYYCSSYAGNNNLVFGGGTKLTVLGGGGSQVKLQQSGPGLVTPSQSLSITCTVSGFSLSDYGVHWVRQSPGQGLEWLGVIWAGGGTNYNSALMSRKSISKDNSKSQVFLKMNSLQADDTAVYYCARDKGYSYYYSMDYWGQGTTVTVSSGGGGSGGGGSGGGGSDIVLTQSPASLAVSLGQRATISCRASESVEYYVTSLMQWYQQKPGQPPKLLIFAASNVESGVPARFSGSGSGTNFSLNIHPVDEDDVAMYFCQQSRKVPYTFGGGTKLEIK
notes: as for B1
As for B3, the “% of cells in the positive gate” value in assay [1] was 98.3; in assay [2] it was 98.6.

B4: 4.7 (bispecific antibody)
scFv-G4S-scFv: QSALTQPPSASGSPGQSVTISCTGTSSDVGAYNFVSWYQQHPGNAPKLIIYDVRKRPSGIPDRFSASKSGNTASLTVSGLQADDEADYYCSSYAGNNNLVFGGGTKLTVLGGGGSGGGGSGGGGSQVQLVQSGAEVKKPGSSVKVSCKASGGTFSSYAISWVRQAPGQGLEWMGMINPSGGTTSYAQKFQGRVTMTRDTSTSTVYMELSSLRPEDTAVYYCARGFRMDQWGQGTLVTVSSGGGGSQVKLQESGPGLVKPSETLSITCTVSGFSLSDYGVHWVRQSPGKGLEWLGVIWAGGGTNYNSALMSRKTISKDNSKSQVFLKMSSLTAADTAVYYCARDKGYSYYYSMDYWGQGTTVTVSSGGGGSGGGGSGGGGSDIQLTQSPSSLSVSVGDRVTISCRASESVEYYVTSLMQWYQQKPGQAPKLLIFAASNVESGVPSRFSGSGSGTNFTLTISSVQEEDFAMYFCQQSRKVPYTFGGGTKLEIK
notes: as for B1
Take B4: the entries for the “% of cells in the positive gate” value in assay [1] and in assay [2] were 95.8 and 96.1, respectively.

B5: anti-mesothelin scFv-M20 (scFv)
scFv: AIQMTQSPSSLSASVGNRVTITCRASQGISSAVAWYQQKPGKPPKLLISYASSLESGVPSRFSGSGSGTDFSLTISSLQPEDFATYFCQQFNSYPLTFGGGTKVEIKGGGGSGGGGSGGGGSQVQLVQSGAEVRKPGESLKISCKGSGYSFRDSWIAWVRQMPGQGLEWMGIIFPGDSNPIYSPSFQGQVTISADTSISTTFLQWRSLKASDSAIYYCARHAAWGAGWFDPWGQGTLVTVSS
notes: On mRNA-electroporated T cells as CAR
As for B5, the “percent of cells in the gate” value in assay [3] was 75.6%.

B6: anti-mesothelin scFv-M32 (scFv)
scFv: DIRMTQSPSSLSASVGDRVTVTCQASEDINNSLNWYQQKPGKAPQLLIYDASDLETGVPSRFSGRGSGRDFTLTISSLQPEDFATYYCQQLNSYPLTFGGGTKLEIKGGGGSGGGGSGGGGSQVQLVQSGAEVKKPGASVKVSCKASGFTFIGYYLHWVRQAPGQGLEWMGIINPSGGRTSMAQKFQGRVSMTTDTSTGTVYLDLGRLGSDDTAVYYCARADNWNAGSMDVWGNGTTVTVSS
notes: as for B5
In the case of B6, the “percent of cells in the gate” value in assay [3] was 84.1%.

B7: anti-mesothelin scFv-M27 (scFv)
scFv: EIVLTQSPGTLSLSPGERATLSCRASQPIVASHLAWYQHKPGQAPRLLIYGASTRAAGIPDRFSGSGSGTDFTLTISRLEPEDFAVYFCQQYGISPFTFGPGTKVDIKGGGGSGGGGSGGGGSQVQLVQSGAEVKKPGESLKISCQGSGYSFTDYWIGWVRQAPGQGLEWMGWITPNNGNTNYAPKFQGRVTLTTDTSTSTAYMELRSLTSDDTAVYFCARRGRNSSGYLYYYSMDVWGQGTTVTVSS
notes: as for B5
Turning to B7, the “percent of cells in the gate” value in assay [3] is 76.3%.

B8: anti-mesothelin scFv-M28 (scFv)
scFv: QSALTQPPSASGSPGQSVTISCSGTSSDVGGYNFVSWYQHHPGKAPKLMIYEVSKRPSGVPDRFSGSKSGNTASLTVSGLQAEDEADYYCSSYAGRNNPYLFGTGTKLTVLGGGGSGGGGSGGGGSQLQLQESGAEVKKPGSSVKVSCKASGGTFSSYAISWVRQAPGQGLEWMGGIIPIFGTANYAQKFQGRVTITADESTSTAYMELSSLRSEDTAVYYCARDLGGYSYGHGLDYWGQGTLVTVSS
notes: as for B5
For B8, the “percent of cells in the gate” value in assay [3] was determined as 82.8%.

B9: anti-mesothelin scFv-M31 (scFv)
scFv: QSALTQPPSASGSPGQSVTISCTGTSSDIGGYNSVSWYQQHPGKAPKLIIYGVSRRPSGVPDRFSGSKSANTASLTVSGLQAVDEADYYCSSYGGSNNLLFGGGTKLTVLGGGGSGGGGSGGGGSEVHLVESGGGLAQPGGSLRLSCAASGFSFSSSWMAWVRQAPGKGLEWVANIKQDGSSQYYVDSVKGRFTISRDNAKNSLSLQMNSLRAEDTAVYYCARDIWYSIDYWGQGTLVTVSS
notes: as for B5
On to B9, for which the “percent of cells in the gate” value in assay [3] came to 67.9%.

B10: anti-mesothelin scFv-M22 (scFv)
scFv: QSALTQPASVSGSPGQSITLSCTGTRRDIGGYEYVSWYQQHPGKAPKLLIFSVNNRPSGVSHRFSGSKSGNTASLTISGLQAEDEAAYFCSSYSSRDTLVLFGGGTKLTVLGGGGSGGGGSGGGGSQVQLVQSGAEVKKPGSSVKVSCKASGGTFSSYAISWVRQAPGQGLEWMGGIIPIFGTANYAQKFQGRVTITADESTSTAYMELSSLRSEDTAVYYCASGRSGSYGLYWGQGTLVTVSS
notes: as for B5
Consider B10, for which the “percent of cells in the gate” value in assay [3] is 80%.

B11: anti-mesothelin scFv-M24 (scFv)
scFv: QPVLTQPPSASGTPGQRVTISCSGSSSNIGSNYVYWYQQFPGTAPKLLIYMNNQRPSGVPDRFSGSKSGTSASLAISGLRSEDEADYYCAARDDSLSGYVTFGGGTKLTVLGGGGSGGGGSGGGGSEVHLVESGGGLVQPGGSLRLSCAASGFTFSSYAMSWVRQAPGKGLEWVSAISGSGGSTYYADSVKGRFTISRDNSKNTLYLQMNSLKTEDTAVYYCTRGVATFDYWGQGTLVTVSS
notes: as for B5
Take B11: the “percent of cells in the gate” value in assay [3] is 93.6%.
